Results from patent US20240150489A1 (ICHNOS SCIENCES, published 2024).

T1: human FcγR2a-ECD-His (human, UniProt P12318 34-208)
T1 construct: His-tagged fusion made in house (UniProt P12318); The SPR method names only 'Fc-receptors IIa, IIb, and IIIa'; also called FcγRIIa; Fc-receptor IIa
T1 chain: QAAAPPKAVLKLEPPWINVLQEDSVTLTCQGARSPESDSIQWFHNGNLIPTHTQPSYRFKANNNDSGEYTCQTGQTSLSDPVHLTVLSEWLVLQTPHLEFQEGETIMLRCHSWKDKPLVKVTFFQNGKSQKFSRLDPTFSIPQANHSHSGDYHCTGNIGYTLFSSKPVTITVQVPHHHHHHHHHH

T2: human FcγR2b-ECD-His (human, UniProt P31994 46-217)
T2 construct: His-tagged fusion made in house (UniProt P31994); also called FcγRIIb; Fc-receptor IIb
T2 sequence: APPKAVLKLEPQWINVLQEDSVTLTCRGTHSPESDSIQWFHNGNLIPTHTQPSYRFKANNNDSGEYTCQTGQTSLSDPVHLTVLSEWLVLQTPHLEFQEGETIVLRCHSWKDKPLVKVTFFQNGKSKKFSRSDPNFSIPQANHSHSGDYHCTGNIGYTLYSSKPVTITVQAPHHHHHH


Tests used:
[1] = biological target: Avi-Tagged FcγRIa (Acrobiosystems, FCA-H82E8) (UniProt P12314 16-288, biotinylated (captured with Biotin CAPture kit)); test: SPR, FcγRIa captured on CAP chip, antibody analyte; reference trastuzumab control IgG1
[2] = biological target: T3, Avi-Tagged FcRn (Acrobiosystems, FCM-H82W2) (human, UniProt P55899 24-297, biotinylated (captured with Biotin CAPture kit)); test: SPR steady state, FcRn captured on CAP chip, antibody analyte; reference trastuzumab control IgG1
T3 construct: also called human neonatal Fc receptor

[3] = biological target: T1, human FcγR2a-ECD-His; test: SPR steady state, antibody on protein G chip, receptor analyte; reference trastuzumab control IgG1
[4] = biological target: T2, human FcγR2b-ECD-His; test: as above
[5] = biological target: T4, human FcγR3a-ECD-His (human, UniProt P08637 17-193); test: as above
T4 construct: His-tagged fusion made in house (UniProt P08637); also called FcγRIIIa; Fc-receptor IIIa

[6] = biological target: T5, CD38 on cells (Daudi, Raji, KMS-12-PE, NCI-H929, KMS-12-BM) (human, UniProt P28907); test: flow cytometry on Raji cells (carry CD38 and CD47), anti-human IgG-Fc PE, GeoMFI; apparent whole-cell value, the anti-CD47 arm also binds
T5 construct: full-length, cell surface; These cells also carry CD47

[7] = biological target: T5, CD38 on cells (Daudi, Raji, KMS-12-PE, …); test: flow cytometry on Daudi cells (carry CD38 and CD47), anti-human IgG-Fc PE, GeoMFI; apparent whole-cell value, the anti-CD47 arm also binds
[8] = biological target: T5, CD38 on cells (Daudi, Raji, KMS-12-PE, …); test: flow cytometry on NCI-H929 cells (carry CD38 and CD47), anti-human IgG-Fc PE, GeoMFI; apparent whole-cell value, the anti-CD47 arm also binds
[9] = biological target: T5, CD38 on cells (Daudi, Raji, KMS-12-PE, …); test: flow cytometry on KMS-12-PE cells (carry CD38 and CD47), anti-human IgG-Fc PE, GeoMFI; apparent whole-cell value, the anti-CD47 arm also binds
[10] = biological target: T5, CD38 on cells (Daudi, Raji, KMS-12-PE, …); test: flow cytometry on KMS-12-BM cells (carry CD38 and CD47), anti-human IgG-Fc PE, GeoMFI; apparent whole-cell value, the anti-CD47 arm also binds
[11] = biological target: T6, CD47 on cells (Daudi cells; human red blood cells) (human, UniProt Q08722 19-323); test: blocking of SIRPα-mIgG1 Fc binding to CD47 on Daudi cells, image-based readout with anti-mouse IgG Fc Alexa Fluor 647, % inhibition; the sheet calls the half-maximal value EC50
T6 construct: whole, on cells; These cells also carry CD38

Binder | fold gain in affinity vs control [1] | KD ratio [BEAT/Control IgG1] [2] | fold gain in affinity vs control [3] | fold gain in affinity vs control [4] | fold gain in affinity vs control [5] | EC50 (read off the curve) [6] | EC50 (read off the curve) [7] | EC50 (read off the curve) [8] | EC50 (read off the curve) [9] | EC50 (read off the curve) [10] | IC50 (read off the curve) [11]
BEAT CD38/CD47-48 (bispecific antibody, human IgG1, kappa, 2+1 biparatopic format; the number of light chains follows from the three Fab domains; also called BEAT CD38/47-48; BEAT 38/47-48) heavy 1: EVQLVESGGGLIQPGGSLRLSCAASGFTLSRNTMHWVRQAPGKGLEWVSVIYQSGVTRYADSVKSRFTISRDNSKNTLYLQMNSLRAEDTAVYYCARGRYGVAGGPGYAFDVWGQGTLVTVSSASTKGPSVFPLAPSSKSTSGGTAALGCLVKDYFPEPVTVSWNSGALTSGVHTFPAVLQSSGLYSLSSVVTVPSSSLGTQTYICNVNHKPSNTKVDKKVEPKSCDKTHTCPPCPAPELLGGPDVFLFPPKPKDTLMISRTPEVTCVVVDVSHEDPEVKFNWYVDGVEVHNAKTKPREEQYNSTYRVVSVLTVLHQDWLNGKEYKCKVNNKALPAPEEKTISKAKGQPREPAVYTLPPSREEMTKNQVKLVCLVTGFYPSDIAVEWESSGQPENNYYTTPPMLDSDGSFSLVSWLNVDKSRWQQGNIFSCSVMHEALHNRFTQKSLSLSPG heavy 2: not shown light: not shown | 864 fold | 0.2 ratio | 7 fold | 16 fold | 10 fold | ~10 nM | ~8 nM | ~20 nM | ~6 nM | ~30 nM | ~0.05 nM
BEAT CD38/CD47-32 (bispecific antibody, human IgG1, kappa, 2+1 monoparatopic format; E269D + S298A + S324N + E333A in both heavy chains) heavy 1: EVQLVESGGGLIQPGGSLRLSCAASGFTLSRNTMHWVRQAPGKGLEWVSVIYQSGVTRYADSVKSRFTISRDNSKNTLYLQMNSLRAEDTAVYYCARGRYGVAGGPGYAFDVWGQGTLVTVSSASTKGPSVFPLAPSSKSTSGGTAALGCLVKDYFPEPVTVSWNSGALTSGVHTFPAVLQSSGLYSLSSVVTVPSSSLGTQTYICNVNHKPSNTKVDKKVEPKSCDKTHTCPPCPAPELLGGPSVFLFPPKPKDTLMISRTPEVTCVVVDVSHDDPEVKFNWYVDGVEVHNAKTKPREEQYNATYRVVSVLTVLHQDWLNGKEYKCKVNNKALPAPIAKTISKAKGQPREPAVYTLPPSREEMTKNQVKLVCLVTGFYPSDIAVEWESSGQPENNYYTTPPMLDSDGSFSLVSWLNVDKSRWQQGNIFSCSVMHEALHNRFTQKSLSLSPG heavy 2: QVQLVQSGAEVKKPGSSVKVSCKASGLPDATYAIGWVRQAPGQGLEWMGRIIPRLDAEHYAQKFQGRVTITADESTSTAYMELSSLRSEDTAVYYCARGLGYYLYSSYYFDIWGQGTLVTVSSASTKGPSVFPLAPSSKSTSGGTAALGCLVKDYFPEPVTVSWNSGALTSGVHTFPAVLQSSGLYSLSSVVTVPSSSLGTQTYICNVNHKPSNTKVDKKVEPKSCGGGGSGGGGSGGGGSQVQLVQSGAEVKKPGSSVKVSCKASGLPDATYAIGWVRQAPGQGLEWMGRIIPRLDAEHYAQKFQGRVTITADESTSTAYMELSSLRSEDTAVYYCARGLGYYLYSSYYFDIWGQGTLVTVSSASTKGPSVFPLAPSSKSTSGGTAALGCLVKDYFPEPVTVSWNSGALTSGVHTFPAVLQSSGLYSLSSVVTVPSSSLGTQTYICNVNHKPSNTKVDKKVEPKSCDKTHTCPPCPAPELLGGPSVFLFPPKPKDTLMISRTPEVTCVVVDVSHDDPEVKFNWYVDGVEVHNAKTKPREEQYNATYRVVSVLTVLHQDWLNGKEYKCKVNNKALPAPIAKTISKAKGQPREPEVATFPPSRDELTKNQVTLVCLVTGFYPSDIAVEWESNGQPENNYKTDPPLLESQGSFALSSRLRVDKSRWQQGNVFSCSVMHEALHNHYTQKSLSLSPG light: not shown | 12 fold | – | 0.5 fold | 1 fold | 3 fold | – | – | – | – | – | –

More lines, now with the values ahead:

fold gain in affinity vs control [1] | KD ratio [BEAT/Control IgG1] [2] | fold gain in affinity vs control [3] | fold gain in affinity vs control [4] | fold gain in affinity vs control [5] | EC50 (read off the curve) [6] | EC50 (read off the curve) [7] | EC50 (read off the curve) [8] | EC50 (read off the curve) [9] | EC50 (read off the curve) [10] | IC50 (read off the curve) [11] | Binder
874 fold | – | 0.4 fold | 1 fold | 4 fold | – | – | – | – | – | – | BEAT CD38/CD47-34 (bispecific antibody, human IgG1, kappa, 2+1 monoparatopic format; E269D + S298A + S324N + K334A in both heavy chains) heavy 1: EVQLVESGGGLIQPGGSLRLSCAASGFTLSRNTMHWVRQAPGKGLEWVSVIYQSGVTRYADSVKSRFTISRDNSKNTLYLQMNSLRAEDTAVYYCARGRYGVAGGPGYAFDVWGQGTLVTVSSASTKGPSVFPLAPSSKSTSGGTAALGCLVKDYFPEPVTVSWNSGALTSGVHTFPAVLQSSGLYSLSSVVTVPSSSLGTQTYICNVNHKPSNTKVDKKVEPKSCDKTHTCPPCPAPELLGGPSVFLFPPKPKDTLMISRTPEVTCVVVDVSHDDPEVKFNWYVDGVEVHNAKTKPREEQYNATYRVVSVLTVLHQDWLNGKEYKCKVNNKALPAPIEATISKAKGQPREPAVYTLPPSREEMTKNQVKLVCLVTGFYPSDIAVEWESSGQPENNYYTTPPMLDSDGSFSLVSWLNVDKSRWQQGNIFSCSVMHEALHNRFTQKSLSLSPG heavy 2: QVQLVQSGAEVKKPGSSVKVSCKASGLPDATYAIGWVRQAPGQGLEWMGRIIPRLDAEHYAQKFQGRVTITADESTSTAYMELSSLRSEDTAVYYCARGLGYYLYSSYYFDIWGQGTLVTVSSASTKGPSVFPLAPSSKSTSGGTAALGCLVKDYFPEPVTVSWNSGALTSGVHTFPAVLQSSGLYSLSSVVTVPSSSLGTQTYICNVNHKPSNTKVDKKVEPKSCGGGGSGGGGSGGGGSQVQLVQSGAEVKKPGSSVKVSCKASGLPDATYAIGWVRQAPGQGLEWMGRIIPRLDAEHYAQKFQGRVTITADESTSTAYMELSSLRSEDTAVYYCARGLGYYLYSSYYFDIWGQGTLVTVSSASTKGPSVFPLAPSSKSTSGGTAALGCLVKDYFPEPVTVSWNSGALTSGVHTFPAVLQSSGLYSLSSVVTVPSSSLGTQTYICNVNHKPSNTKVDKKVEPKSCDKTHTCPPCPAPELLGGPSVFLFPPKPKDTLMISRTPEVTCVVVDVSHDDPEVKFNWYVDGVEVHNAKTKPREEQYNATYRVVSVLTVLHQDWLNGKEYKCKVNNKALPAPIEATISKAKGQPREPEVATFPPSRDELTKNQVTLVCLVTGFYPSDIAVEWESNGQPENNYKTDPPLLESQGSFALSSRLRVDKSRWQQGNVFSCSVMHEALHNHYTQKSLSLSPG light: not shown
4510 fold | 0.3 ratio | 0.4 fold | 1 fold | 4 fold | – | – | – | – | – | – | BEAT CD38/CD47-40 (bispecific antibody, human IgG1, kappa, 2+1 biparatopic format; E269D + S298A + S324N + K334A in both heavy chains) heavy 1: EVQLVESGGGLIQPGGSLRLSCAASGFTLSRNTMHWVRQAPGKGLEWVSVIYQSGVTRYADSVKSRFTISRDNSKNTLYLQMNSLRAEDTAVYYCARGRYGVAGGPGYAFDVWGQGTLVTVSSASTKGPSVFPLAPSSKSTSGGTAALGCLVKDYFPEPVTVSWNSGALTSGVHTFPAVLQSSGLYSLSSVVTVPSSSLGTQTYICNVNHKPSNTKVDKKVEPKSCDKTHTCPPCPAPELLGGPSVFLFPPKPKDTLMISRTPEVTCVVVDVSHDDPEVKFNWYVDGVEVHNAKTKPREEQYNATYRVVSVLTVLHQDWLNGKEYKCKVNNKALPAPIEATISKAKGQPREPAVYTLPPSREEMTKNQVKLVCLVTGFYPSDIAVEWESSGQPENNYYTTPPMLDSDGSFSLVSWLNVDKSRWQQGNIFSCSVMHEALHNRFTQKSLSLSPG heavy 2: not shown light: not shown
